Test results taken from the supplement of paper PMC10126150.
± gives the standard deviation of the averaged measurements.

Test system: ATP
Assay: switch fluorescence ratio, 500 uM ATP over buffer (Cy3 cluster intensity, sum of 5 cycles each) (fold (ratio)); higher = stronger signal-on switching upon ATP binding; sequences stand for … in TCGTCGGCAGCGTCAGATGTGTATAAGAGACAGTTTTTTTTTTTTTTTTTTTTTTTTT…TC
Settings: aptamer strand: ATP DNA aptamer (quencher-CACCTGGGGGAGTATTGCGGAGGAAGG + anchor), 100 nM annealed; ATP concentration: 500 uM
Method in brief: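 Cy3-labelled switching-strand clusters on a modified Illumina MiSeq flow-cell were annealed to 100 nM quencher-labelled ATP aptamer and imaged first in selection buffer, then after 15 min with 500 uM ATP at 22 °C. NaOH stripping and re-annealing separated each of five buffer/ATP cycles, and clusters outside 100-1000 RFU were excluded. The fluorescence ratio sums target-cycle Cy3 intensity over buffer-cycle Cy3 intensity per cluster and averages it per switch-domain sequence.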
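Further: ATP exposure 15 min at 22 °C before imaging.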

Sequence | switch fluorescence ratio
AGGGTCACTC | 0.9857 ± 0.0043
AGGGTCAGGA | 0.996 ± 0.021
AGGGTCGCCT | 1 ± 0.04
AGGGTCGCGT | 0.989 ± 0.034
AGGGTCGGCT | 0.993 ± 0.02
AGGGTCGGGC | 1.027 ± 0.0061
AGGGTCGGTG | 0.98 ± 0.027
AGGGTCTACG | 0.997 ± 0.044
AGGGTCTAGA | 0.978 ± 0.023
AGGGTCTCGT | 1.009 ± 0.0025
AGGGTCTTAG | 1.02 ± 0.049
AGGGTGATAC | 1.61 ± 0.62
AGGGTGGAAG | 0.993 ± 0.038
AGGGTGGGTG | 1.01 ± 0.024
AGGGTGTAGA | 1.016 ± 0.0045
AGGGTGTCCA | 0.973 ± 0.028
AGGGTGTCCG | 1.09 ± 0.054
AGGGTGTGGC | 1.0304 ± 0.00027
AGGGTTAGCT | 0.991 ± 0.02
AGGGTTAGGA | 1.02 ± 0.033
AGGGTTAGTC | 1.03 ± 0.058
AGGGTTATGC | 0.984 ± 0.031
AGGGTTGAGA | 0.985 ± 0.033
AGGGTTGCTG | 1.05 ± 0.074
AGGGTTGGAA | 0.967 ± 0.011

Sequence | switch fluorescence ratio
AGGGTTGGAC | 0.9774 ± 0.0057
AGGGTTGGG | 1.03 ± 0.029
AGGGTTGGGA | 0.9962 ± 0.0068
AGGGTTGGTG | 1.04 ± 0.077
AGGGTTGTGC | 1.03 ± 0.049
AGGGTTTCAG | 0.98 ± 0.026
AGGGTTTTAC | 1.017 ± 0.0013
AGGGTTTTGA | 0.996 ± 0.054
AGGGTTTTTG | 0.994 ± 0.016
AGGTAATCTT | 0.979 ± 0.016
AGGTACGCTC | 0.99314 ± 0.00048
AGGTACGGCC | 1.03 ± 0.033
AGGTAGCGGC | 0.9911 ± 0.0095
AGGTAGGCGC | 0.98 ± 0.041
AGGTAGGGGG | 0.993 ± 0.019
AGGTATCCAC | 1.03 ± 0.035
AGGTATGCAG | 0.9983 ± 0.0044
AGGTATGGTC | 0.995 ± 0.031
AGGTATTTTT | 1.009 ± 0.0042
AGGTCACGGC | 1 ± 0.034
AGGTCAGAGA | 1 ± 0.028
AGGTCATCGA | 1.004 ± 0.0064
AGGTCCCTGT | 1.01 ± 0.042
AGGTCCGGAA | 1.14 ± 0.017
AGGTCGGGTA | 0.979 ± 0.038

Sequence | switch fluorescence ratio
AGGTCGTGTT | 0.992 ± 0.01
AGGTCTAATG | 1.01 ± 0.03
AGGTCTGAAA | 1.04 ± 0.042
AGGTGAAGGT | 1.01 ± 0.0035
AGGTGAGAAT | 1.16 ± 0.035
AGGTGATACG | 1.06 ± 0.054
AGGTGCAATT | 1.47 ± 0.54
AGGTGCCAG | 0.96208 ± 0.00094
AGGTGGGCGC | 0.94 ± 0.07
AGGTGGGGAC | 1.01 ± 0.014
AGGTGGGGTC | 0.984 ± 0.016
AGGTGGTTG | 0.998 ± 0.028
AGGTGTAAGG | 1.01 ± 0.051
AGGTGTTAAA | 0.9941 ± 0.0033
AGGTGTTATG | 1.03 ± 0.051
AGGTGTTGCG | 1.016 ± 0.0056
AGGTTAATAG | 0.996 ± 0.012
AGGTTAATCT | 1.01 ± 0.018
AGGTTACTCC | 1.07 ± 0.032
AGGTTAGTTT | 0.985 ± 0.018
AGGTTCAAAT | 0.996 ± 0.044
AGGTTCAACG | 1.01 ± 0.028
AGGTTCACTA | 1.01 ± 0.06
AGGTTCGATC | 1.02 ± 0.043
AGGTTGCAGC | 0.992 ± 0.032

Sequence | switch fluorescence ratio
AGGTTGCAGT | 1.01 ± 0.077
AGGTTGCGGG | 1 ± 0.014
AGGTTGGACT | 0.99145 ± 0.00056
AGGTTGGCTT | 0.96006 ± 0.0007
AGGTTGTACT | 0.968 ± 0.016
AGGTTGTGGC | 0.992 ± 0.033
AGGTTGTGTC | 0.979 ± 0.047
AGGTTGTTGG | 0.966 ± 0.016
AGGTTTAAAC | 1.06 ± 0.063
AGGTTTAGTC | 0.9945 ± 0.0026
AGGTTTATAT | 0.999 ± 0.016
AGGTTTGGGC | 0.997 ± 0.061
AGGTTTTATA | 0.9919 ± 0.0094
AGGTTTTGAT | 1.01 ± 0.019
AGGTTTTGTT | 0.964 ± 0.017
AGGTTTTTCG | 1.03 ± 0.03
AGTAAAAGCG | 1.04 ± 0.017
AGTAAATTTG | 0.9918 ± 0.0076
AGTAACATAT | 0.993 ± 0.012
AGTAACCAAG | 1.01 ± 0.037
AGTAAGAGCA | 1.01 ± 0.011
AGTAAGATCA | 0.992 ± 0.025
AGTAAGGCTC | 1.14 ± 0.061
AGTAAGGGGA | 1.08 ± 0.045
AGTAATACGG | 1.3 ± 0.29

Sequence | switch fluorescence ratio
AGTAATATTT | 1.03 ± 0.0061
AGTAATGGGT | 0.996 ± 0.017
AGTAATGGTT | 1.01 ± 0.014
AGTAATTTTG | 1.01 ± 0.065
AGTAATTTTT | 1 ± 0.018
AGTAGAGCCT | 1.061 ± 0.0069
AGTAGAGGGA | 0.995 ± 0.019
AGTAGAGTGT | 0.995 ± 0.04
AGTAGATTCC | 1.042 ± 0.01
AGTAGATTGG | 0.995 ± 0.028
AGTAGCAAAT | 1.2 ± 0.13
AGTAGGAAGG | 1.01 ± 0.019
AGTAGGCAAA | 1.01 ± 0.014
AGTAGGCAAG | 1 ± 0.035
AGTAGGCAGC | 1.01 ± 0.033
AGTAGGCGCT | 1.01 ± 0.048
AGTAGGGCTC | 1 ± 0.046
AGTAGGGGGA | 0.9912 ± 0.0034
AGTAGGGGT | 1.02 ± 0.054
AGTAGGGTGT | 0.968 ± 0.029
AGTAGGTTTT | 1.04 ± 0.078
AGTAGTATCT | 0.981 ± 0.03
AGTAGTGGGT | 1.02 ± 0.056
AGTAGTTATA | 1.03 ± 0.093
AGTAGTTGCC | 1.014 ± 0.0021

Sequence | switch fluorescence ratio
AGTATAAAAT | 1.01 ± 0.018
AGTATAGACC | 0.983 ± 0.01
AGTATAGAGT | 1.01 ± 0.037
AGTATAGGGG | 1.006 ± 0.007
AGTATATAGG | 0.986 ± 0.018
AGTATATGGG | 0.988 ± 0.023
AGTATCACAG | 0.9621 ± 0.0047
AGTATCTTTA | 0.9913 ± 0.0096
AGTATGAGGT | 0.98 ± 0.012
AGTATGCATA | 0.951 ± 0.016
AGTATGTATG | 1.02 ± 0.024
AGTATGTTTT | 0.995 ± 0.0076
AGTATTGCAG | 0.9322 ± 0.002
AGTATTTGGT | 1 ± 0.025
AGTATTTGTA | 1 ± 0.02
AGTATTTTGG | 1.01 ± 0.018
AGTCAGATGG | 0.981 ± 0.025
AGTCAGGGGG | 1 ± 0.028
AGTCAGTTTT | 1.024 ± 0.0078
AGTCATGAAA | 1.11 ± 0.12
AGTCATGTGG | 1.01 ± 0.019
AGTCCAATGT | 0.993 ± 0.021
AGTCCCAAGG | 1.13 ± 0.2
AGTCCGGAGT | 1.05 ± 0.023
AGTCCGGGTA | 1.08 ± 0.17

Sequence | switch fluorescence ratio
AGTCGAGCTA | 0.986 ± 0.021
AGTCGGACTT | 0.993 ± 0.01
AGTCGGCTGT | 0.99449 ± 0.00015
AGTCGTTGGG | 0.984 ± 0.015
AGTCTAGGGC | 1.04 ± 0.017
AGTCTATCTG | 0.964 ± 0.03
AGTCTGCTCG | 1 ± 0.018
AGTCTGGATC | 0.9959 ± 0.0084
AGTCTGGGTA | 0.965 ± 0.016
AGTCTGTCGT | 0.98 ± 0.039
AGTCTTAGGG | 0.972 ± 0.023
AGTCTTCTGG | 1.01 ± 0.026
AGTCTTTTTG | 0.999 ± 0.03
AGTGAAAATG | 1.05 ± 0.029
AGTGAAAATT | 1 ± 0.038
AGTGAGCTGA | 0.9769 ± 0.0069
AGTGAGCTTG | 0.9818 ± 0.0038
AGTGAGGCGC | 1.01 ± 0.024
AGTGAGTCTG | 0.995 ± 0.053
AGTGATATTA | 1.01 ± 0.022
AGTGATGAAG | 0.996 ± 0.037
AGTGATGTGT | 1 ± 0.017
AGTGCAGAGA | 0.989 ± 0.028
AGTGCCCAGG | 2.4 ± 1.6
AGTGCGATGT | 0.988 ± 0.016

Sequence | switch fluorescence ratio
AGTGCGTCTC | 0.975 ± 0.012
AGTGCTTGAG | 0.977 ± 0.043
AGTGGAACTT | 0.976 ± 0.036
AGTGGAGGGC | 1.03 ± 0.036
AGTGGAGTCA | 1.02 ± 0.035
AGTGGCATAG | 0.996 ± 0.022
AGTGGGATAA | 1.11 ± 0.099
AGTGGGCTTT | 0.996 ± 0.037
AGTGGGGATA | 0.986 ± 0.039
AGTGGGGCGT | 1 ± 0.016
AGTGGGGGG | 1.0071 ± 0.001
AGTGGGGGGG | 0.991 ± 0.049
AGTGGGGGGT | 0.991 ± 0.03
AGTGGGTATA | 1.01 ± 0.02
AGTGGGTGGG | 0.9921 ± 0.0049
AGTGGGTTTT | 0.988 ± 0.043
AGTGGTGGCG | 0.9 ± 0.082
AGTGTAAGCC | 0.9622 ± 0.0067
AGTGTACCCA | 1.077 ± 0.01
AGTGTGCATG | 1.03 ± 0.013
AGTGTGCTGG | 1.01 ± 0.043
AGTGTTCGGG | 1 ± 0.043
AGTGTTGCAG | 0.98 ± 0.048
AGTGTTTGG | 0.997 ± 0.02
AGTTAAAGCT | 1.151 ± 0.0063
